Entries after “also recorded” stand apart in the source; their conditions may differ. Like-named read-outs stand apart in the source and are kept apart here.
Tests used:
[1] = biological target: T1, FBF-2 RBD + CT (Caenorhabditis elegans, UniProt Q09312); assay: ITC, peptide into FBF-2 RBD + CT, no RNA; type: binding, C. elegans; conditions: mean of two independent replicates; 20 °C, 20 mM HEPES pH 7.4, 150 mM NaCl, 0.5 mM TCEP; one-site model
T1 construct: A cDNA fragment encoding C. elegans FBF-2 RBD + CT (residues 164-632) was cloned into the pSMT3 vector; His6-SUMO (N, cleaved yes); made in house; host or cells: E. coli BL21-CodonPlus (DE3)-RIL
T1 sequence (Q09312 whole entry, looked up): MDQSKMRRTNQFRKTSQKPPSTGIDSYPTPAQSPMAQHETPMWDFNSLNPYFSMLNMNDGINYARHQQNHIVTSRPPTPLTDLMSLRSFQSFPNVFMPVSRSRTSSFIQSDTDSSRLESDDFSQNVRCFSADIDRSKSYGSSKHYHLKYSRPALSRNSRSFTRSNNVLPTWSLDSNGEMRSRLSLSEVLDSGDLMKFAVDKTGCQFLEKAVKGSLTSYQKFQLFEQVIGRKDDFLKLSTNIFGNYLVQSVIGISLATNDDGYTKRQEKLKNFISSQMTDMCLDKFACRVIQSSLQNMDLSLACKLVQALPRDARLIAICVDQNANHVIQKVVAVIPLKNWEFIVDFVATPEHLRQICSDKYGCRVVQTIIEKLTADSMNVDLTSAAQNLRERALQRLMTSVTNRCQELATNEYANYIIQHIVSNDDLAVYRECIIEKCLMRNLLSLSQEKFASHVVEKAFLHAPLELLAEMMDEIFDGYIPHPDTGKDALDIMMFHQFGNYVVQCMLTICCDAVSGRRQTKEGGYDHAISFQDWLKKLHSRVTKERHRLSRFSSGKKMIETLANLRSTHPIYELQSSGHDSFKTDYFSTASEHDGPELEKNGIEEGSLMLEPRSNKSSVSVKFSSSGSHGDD

[2] = biological target: T2, FBF-2 RBD + CT L610A (Caenorhabditis elegans, UniProt Q09312, L610A); type: binding, C. elegans; conditions: pH 7.4
T2 construct: A cDNA fragment encoding C. elegans FBF-2 RBD + CT (residues 164-632) was cloned into the pSMT3 vector; His6-SUMO (N, cleaved yes); made in house; host or cells: E. coli BL21-CodonPlus (DE3)-RIL (as for wild type)
T2 sequence (Q09312 164-632 L610A): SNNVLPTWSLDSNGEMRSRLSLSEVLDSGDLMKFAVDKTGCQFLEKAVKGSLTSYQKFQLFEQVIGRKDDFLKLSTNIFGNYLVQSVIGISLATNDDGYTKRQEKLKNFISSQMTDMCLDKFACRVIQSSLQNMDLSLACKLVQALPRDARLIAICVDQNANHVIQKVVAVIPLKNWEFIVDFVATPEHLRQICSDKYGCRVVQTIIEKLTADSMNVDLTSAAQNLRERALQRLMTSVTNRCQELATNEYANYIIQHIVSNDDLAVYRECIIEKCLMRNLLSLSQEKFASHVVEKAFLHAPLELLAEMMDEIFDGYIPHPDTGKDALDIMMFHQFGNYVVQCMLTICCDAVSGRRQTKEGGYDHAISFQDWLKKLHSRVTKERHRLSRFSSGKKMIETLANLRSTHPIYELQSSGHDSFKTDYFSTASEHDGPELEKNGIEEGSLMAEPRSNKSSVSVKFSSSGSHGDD

[3] = biological target: T3, FBF-2 RBD (Caenorhabditis elegans, UniProt Q09312); conditions: reported previously, cited from earlier work
T3 construct: The FBF-2 RBD protein (residue 164-575) was purified as described previously; His6-SUMO (N, cleaved yes); made in house; host or cells: E. coli BL21-CodonPlus (DE3)-RIL (host inferred: b50 says the procedure was otherwise the same as for RBD + CT)
T3 sequence (Q09312 whole entry, looked up): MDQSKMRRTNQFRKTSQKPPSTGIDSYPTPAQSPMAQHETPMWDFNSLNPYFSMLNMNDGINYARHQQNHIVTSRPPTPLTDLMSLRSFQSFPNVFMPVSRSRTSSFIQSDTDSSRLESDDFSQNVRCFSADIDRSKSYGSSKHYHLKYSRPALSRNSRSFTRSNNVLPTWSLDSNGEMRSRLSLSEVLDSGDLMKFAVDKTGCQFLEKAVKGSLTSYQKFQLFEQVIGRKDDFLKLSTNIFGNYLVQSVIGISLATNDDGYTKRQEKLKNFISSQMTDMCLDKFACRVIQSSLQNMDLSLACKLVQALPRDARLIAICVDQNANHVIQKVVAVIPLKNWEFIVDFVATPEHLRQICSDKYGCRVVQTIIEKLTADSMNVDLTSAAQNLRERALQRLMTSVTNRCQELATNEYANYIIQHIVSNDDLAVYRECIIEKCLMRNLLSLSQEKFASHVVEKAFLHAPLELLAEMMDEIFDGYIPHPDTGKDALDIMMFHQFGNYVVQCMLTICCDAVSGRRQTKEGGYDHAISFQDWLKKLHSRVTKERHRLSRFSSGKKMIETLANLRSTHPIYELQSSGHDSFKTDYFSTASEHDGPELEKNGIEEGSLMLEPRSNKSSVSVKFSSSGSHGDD
Source text: Given that the core residues of three distinct PIMs—FBF-2 CT, LST-1 A, and LST-1 B—all bind to the same site of FBF-2, we hypothesized that the intramolecular FBF-2 CT binding could compete with LST-1 A and LST-1 B binding. To assess that idea, we investigated how the CT affects the protein interaction affinities of the FBF-2 RBD to LST-1 A and LST-1 B, using isothermal titration calorimetry (ITC, Supplementary Table 3). No RNA was included in these experiments. We first measured the binding affinity of an isolated CT peptide and the FBF-2 RBD (no CT), by titrating the peptide, FBF-2^601–632, ... || Fig. 2 The FBF-2 CT competes with partner proteins for binding to the RBD. Representative isothermal titration calorimetry thermograms (top, differential power [DP] vs time) and corresponding titration curve-fitting graphs (bottom) are shown for interaction between a FBF-2 RBD and FBF-2 CT, c FBF-2 RBD + CT and LST-1 A, d FBF-2 RBD + CT and LST-1 B, e FBF-2 RBD and FBF-2 CT L610A, f FBF-2 RBD + CT L610A and LST-1 A, and g FBF-2 RBD + CT L610A and LST-1 B. Data points on the curve-fitting graphs are shown as open circles. b Previously reported mean Kd from two independent replicates with simila ... || We next compared the protein interaction affinities of LST-1 A or LST-1 B with either FBF-2 RBD + CT or RBD alone (Fig. 2c–g, Supplementary Table 3). For these experiments, we titrated the LST-1 peptide into an ITC cell containing either RBD + CT or RBD.

[4] = system: gld-1 FBEa RNA; conditions: LST-1 peptide with FBF-2 RBD (no CT); cited from earlier work
Source text: LST-1 is expressed in GSCs in response to signaling from the stem cell niche. The LST-1 protein is largely unstructured (Fig. 1b), including an N-terminal region that is sufficient for self-renewal of GSCs[22]. This LST-1 IDR region harbors two PUF Interacting Motifs (PIMs), LST-1 A and LST-1 B, that interact with FBF-2, each with a KxxL sequence[17],[22]. Crystal structures of FBF-2 bound to LST-1 A or B identify a seven-residue core region, including the KxxL sequence, that binds to FBF-2 with similar peptide backbone structure[17],[18]. The two LST-1 PIMs are biologically redundant for ... || If the FBF-2 CT reduces RNA-binding affinity (Fig. 3b) and competes with LST-1 for binding (Fig. 2c, d), why then does FBF-2 depend on LST-1 to repress RNAs in nematodes? To address this question, we explored RNA-binding affinities of FBF-2 RBD + CT in the presence of either LST-1 A or LST-1 B (Fig. 6; Supplementary Table 3). In contrast to results with FBF-2 RBD alone[17],[18], both LST-1 A and LST-1 B increased the RNA-binding affinity of FBF-2 RBD + CT.

[5] = biological target: T3, FBF-2 RBD; type: binding, C. elegans; conditions: mean of two independent replicates, 20 °C, 20 mM HEPES pH 7.4, 150 mM NaCl, 0.5 mM TCEP, one-site model
Description: To assess that idea, we investigated how the CT affects the protein interaction affinities of the FBF-2 RBD to LST-1 A and LST-1 B, using isothermal titration calorimetry (ITC, Supplementary Table 3). No RNA was included in these experiments.
Experiments were performed at 20 °C using a MicroCal PEAQ-ITC Automated (Malvern Instruments) with a 200-μL standard cell and a 40-μL titration syringe. FBF-2 and LST-1 variants were prepared in a buffer of 20 mM HEPES pH 7.4, 150 mM NaCl, and 0.5 mM TCEP by gel filtration. LST-1 (100–400 µM) was titrated from the syringe into the cell containing FBF-2 (10–30 µM) in 2 µl aliquots. Experiments were performed in duplicate due to the limitation of the amount of protein needed. Data were analyzed using the MicroCal PEAQ-ITC Analysis Software (version 1.40) provided by the manufacturer with the one-site model (Table S3).
Supplementary Table 3. Protein interaction affinities, stoichiometries, and thermodynamic parameters between FBF-2 CT/LST-1 variants and FBF-2 measured by ITC. Two technical replicates (n=2 independent experiments) were performed for each analysis with similar results, and the values are shown for each replicate. Source data are provided as a Source Data file. […]
RBD+CT LST-1 A none Not detected
RBD FBF-2 CT none Not detected
1 Reported previously 18.

## LST-1 A: LST-1 A peptide, residues 19–50, expressed in E. coli (STIAYSKSQHEAPKQLLQLRSEIKPLIPLNQP; left off: His6-SUMO, N-terminal, cleaved)
[1]
  Kd: No binding; also recorded: too weak to be detected by ITC; also recorded: Not detected
[2]
  ∆G: -7.62 kcal/mol
[2]; replicate 1, 20 °C
  -T∆S: 4.45 kcal/mol
  ∆G: -7.5 kcal/mol
  ∆H: -12 kcal/mol
[2]; replicate 2, 20 °C
  -T∆S: 4.73 kcal/mol
  ∆H: -12.4 kcal/mol
[3]; replicate 1
  -T∆S: 6.07 kcal/mol
  ∆G: -7.62 kcal/mol
  ∆H: -13.7 kcal/mol
[3]; replicate 2
  -T∆S: 6 kcal/mol
  ∆G: -7.65 kcal/mol
  ∆H: -13.6 kcal/mol
[4]
  effect on RNA-binding affinity of FBF-2 RBD: no effect on RNA-binding affinity

## FBF-2 CT L610A: FBF-2 CT (601-632) with L610A (NGIEEGSLMAEPRSNKSSVSVKFSSSGSHGDD)
[5]
  Kd: No binding; also recorded: Not detected
[5]; listed as CT peptide with L610A
  Kd: No binding was detected

From paper PMC10641069, “Intra- and inter-molecular regulation by intrinsically-disordered regions governs PUF protein RNA binding” (Nature Communications, 2023)
